In the supplement of paper PMC9170038:

System: MS2 coat protein
Assay: apparent KD of MS2 coat protein; designed switch direction (-1 OFF switch, 1 ON switch): 1; higher = weaker reporter binding
Outline: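 The reported apparent KD is a per-design median over clusters, from curve fits of normalised cluster fluorescence. Protein titrations used SNAP-549-labelled MS2 coat protein, doubled from 0.7 or 1.5 nM to 3 µM, in Tris-HCl pH 7.5 buffer with KCl, MgCl2, BSA, DTT, tRNA and Tween-20, with no input, 200 uM small-molecule ligand, or an oligonucleotide input. The RNA switches were transcribed on Illumina chips by stalled E. coli RNA polymerase.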

[1] = Eterna round: R95, input ligand: FMN 200 uM
[2] = Eterna round: R95, input ligand: microRNA oligo, concentration not stated
[3] = Eterna round: R95, input ligand: none
[4] = input ligand: microRNA oligo, concentration not stated

ACUUGCUUUUUGCUCAUUUUUUGUCCGUAACAUGAGGAUCACCCAUGUGUAGAUUAUGUGUUGUUUUUGAUACGUGA [JR_SHM208A_Sub068] (puzzle: Sensor for hsa-mir-208a)
apparent KD of MS2 coat protein [1]: 29.9 nM
apparent KD of MS2 coat protein [2]: 29.5 nM
apparent KD of MS2 coat protein [3]: 34.6 nM

AACAAUCUAUCUGAGGAUAUUAUGAAAUAAACAUGAGGAUCACCCAUGUGCAGGAAAACUGCAUAUGAGAAGGCAGAUAGAUUGA [salish99_ss2_r3_027] (puzzle: Same State 2)
apparent KD of MS2 coat protein [1]: 18.8 nM
apparent KD of MS2 coat protein [2]: 336 nM
apparent KD of MS2 coat protein [3]: 636 nM

UCUCGGGUCGUAGGAUAUGUAGGAUAUGUACAUGAGGAUCACCCAUGUCUACCAGAGACAGAAGGACAGAAGGACGAGCCACUC [pwkr ssNG2 2FMN 1F5s.5] (Eterna round: R96, puzzle: Same State NG 2)
apparent KD of MS2 coat protein (input ligand: FMN 200 uM): 25.2 nM
apparent KD of MS2 coat protein [4]: 42.2 nM
apparent KD of MS2 coat protein (input ligand: none): 55.5 nM

GUUACAUGAGGAUCACCCAUGUAUGUGUGGGAGUAAGUGUCUUAGGAUAUCUAUCAGUUAAUUUAAGAGAAGGAAGAUUGUUGU [JMF's solution 90] (Eterna round: R96, puzzle: Same State NG 3)
apparent KD of MS2 coat protein (input ligand: FMN 200 uM): 126 nM
apparent KD of MS2 coat protein [4]: 111 nM
apparent KD of MS2 coat protein (input ligand: none): 115 nM

UCUUGGUUUUUGCUCGUUUUUUGUGUUGAACAUGAGGAUCACCCAUGUAUUGUACAGUCCGGUUUGAUGAUGGUCCG [JMF 59] (puzzle: Sensor for hsa-mir-208a)
apparent KD of MS2 coat protein [1]: 32.1 nM
apparent KD of MS2 coat protein [2]: 25.6 nM
apparent KD of MS2 coat protein [3]: 33.4 nM

UUUAUAUUCAGAGGAUAUUAAAGUAGUAUAAUAUAAGAAGGCUGUUUGUUUUGUAAAUUUAUUCUACAUGAGGAUCACCCAUGU [JR_SSNG1_Sub086] (Eterna round: R96, puzzle: Same State NG 1)
apparent KD of MS2 coat protein [4]: 14.5 nM

AAUCGUUUGAUAGGAUAUCGCUAUACAUGAGGAUCACCCAUGUUUACCACGCUGGUUUUUCAUACCGAGAAGGAUUCUGAUGAG [salish99_SSNG02_r04_001] (Eterna round: R96, puzzle: Same State NG 2)
apparent KD of MS2 coat protein (input ligand: FMN 200 uM): 72.1 nM
apparent KD of MS2 coat protein [4]: 45.7 nM
apparent KD of MS2 coat protein (input ligand: none): 53.4 nM

UGUUAACAUGAGGAUCACCCAUGUCAAAUGAAGCGAGGAUAUGGAAAGUAAUAAGAUGAACUAGAAGGUGUAGUAG [Altered State 1-20 - Jieux - Same State 1] (puzzle: Same State 1)
apparent KD of MS2 coat protein [1]: 37.6 nM
apparent KD of MS2 coat protein [2]: 59.4 nM
apparent KD of MS2 coat protein [3]: 62 nM

GGGCUCUACGGAGGAUAUUCAACACAUGAGGAUCACCCAUGUCAGCCUCCCUGAUCCAGGGAAGCGAAGAAGGCUGCGAGGACG [Eternabot solution 35] (Eterna round: R96, puzzle: Same State NG 2)
apparent KD of MS2 coat protein (input ligand: FMN 200 uM): 29.1 nM
apparent KD of MS2 coat protein [4]: 21.8 nM
apparent KD of MS2 coat protein (input ligand: none): 34.5 nM

GCUUGCGACGCAGGAUAUGGGUGCCUGUACAUGAGGAUCACCCAUGUUAAGGAACGGAUUACGUCUCAGAAGGGCGUGGCAGGC [Ceerce Mod] (Eterna round: R96, puzzle: Same State NG 2)
apparent KD of MS2 coat protein (input ligand: FMN 200 uM): 37.1 nM
apparent KD of MS2 coat protein [4]: 31.1 nM
apparent KD of MS2 coat protein (input ligand: none): 1250 nM

CCGAUGUGGGUACAGGAUAUGUGGGCCUCCACAUGAGGAUCACCCAUGUCGGAGGCAAAGCGGCUACAGAAGGGUGCGUGCUCGA [Riinceer] (puzzle: Same State 2)
apparent KD of MS2 coat protein [1]: 13.1 nM
apparent KD of MS2 coat protein [2]: 11.3 nM
apparent KD of MS2 coat protein [3]: 12.3 nM

GGUUUAGCCAGGUGCAGUUGCACCUGAAAACAUGAGGAUCACCCAUGUUUGGGACAAGCUUUGCUCCUCGUCUUUCC [Isusreraar] (puzzle: Sensor for hsa-mir-208a)
apparent KD of MS2 coat protein [1]: 267 nM
apparent KD of MS2 coat protein [2]: 38.7 nM
apparent KD of MS2 coat protein [3]: 364 nM

AAAAAACAUGAGGAUCACCCAUGUCAAAAGACAUGAGGAUAUGUGCAAAUAAAAUAAGAAACAGAAGGCAUGAAAA [salish99_ss1_r3_102] (puzzle: Same State 1)
apparent KD of MS2 coat protein [1]: 69.1 nM
apparent KD of MS2 coat protein [2]: 210 nM
apparent KD of MS2 coat protein [3]: 229 nM
